Experimental data: patent publication US20050282743A1, “Molecular interactions in cells” (Arbor Vita Corporation, priority 2001, published 2005)
Ends that are not written are not given here. * marks the point of attachment. Biotin = O=C1N[C@H]2[C@H](CS[C@H]2CCCCC(=O)*)N1

Experiments:
Test in all cases: G' assay (10 uM PL peptide), results of TABLE 7 and TABLE 12
Format in all cases: binding
[1] = biological target: T1, PDZ protein (GST-PDZ fusion) (Homo sapiens, UniProt O15018); details: PDZ AIPC, PDZ Domain 1
T1 construct: made in house; host or cells: E. coli (DH5alpha, BL21 or JM109)
Procedure, shortened: (§1)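 Same steps as the G-zero format, apart from a peptide concentration of 10 uM in place of 20 uM in step 2. Amino-terminally biotinylated PL peptides bind GST-PDZ fusions, and retained peptide is quantified by 450 nm absorbance.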

[2] = biological target: T2, PDZ protein (GST-PDZ fusion) (Homo sapiens, UniProt O15085); details: PDZ KIAA0380, PDZ Domain 1
T2 construct: made in house; host or cells: E. coli (DH5alpha, BL21 or JM109)
T2 sequence (O15085 whole entry, the tested form may be a part): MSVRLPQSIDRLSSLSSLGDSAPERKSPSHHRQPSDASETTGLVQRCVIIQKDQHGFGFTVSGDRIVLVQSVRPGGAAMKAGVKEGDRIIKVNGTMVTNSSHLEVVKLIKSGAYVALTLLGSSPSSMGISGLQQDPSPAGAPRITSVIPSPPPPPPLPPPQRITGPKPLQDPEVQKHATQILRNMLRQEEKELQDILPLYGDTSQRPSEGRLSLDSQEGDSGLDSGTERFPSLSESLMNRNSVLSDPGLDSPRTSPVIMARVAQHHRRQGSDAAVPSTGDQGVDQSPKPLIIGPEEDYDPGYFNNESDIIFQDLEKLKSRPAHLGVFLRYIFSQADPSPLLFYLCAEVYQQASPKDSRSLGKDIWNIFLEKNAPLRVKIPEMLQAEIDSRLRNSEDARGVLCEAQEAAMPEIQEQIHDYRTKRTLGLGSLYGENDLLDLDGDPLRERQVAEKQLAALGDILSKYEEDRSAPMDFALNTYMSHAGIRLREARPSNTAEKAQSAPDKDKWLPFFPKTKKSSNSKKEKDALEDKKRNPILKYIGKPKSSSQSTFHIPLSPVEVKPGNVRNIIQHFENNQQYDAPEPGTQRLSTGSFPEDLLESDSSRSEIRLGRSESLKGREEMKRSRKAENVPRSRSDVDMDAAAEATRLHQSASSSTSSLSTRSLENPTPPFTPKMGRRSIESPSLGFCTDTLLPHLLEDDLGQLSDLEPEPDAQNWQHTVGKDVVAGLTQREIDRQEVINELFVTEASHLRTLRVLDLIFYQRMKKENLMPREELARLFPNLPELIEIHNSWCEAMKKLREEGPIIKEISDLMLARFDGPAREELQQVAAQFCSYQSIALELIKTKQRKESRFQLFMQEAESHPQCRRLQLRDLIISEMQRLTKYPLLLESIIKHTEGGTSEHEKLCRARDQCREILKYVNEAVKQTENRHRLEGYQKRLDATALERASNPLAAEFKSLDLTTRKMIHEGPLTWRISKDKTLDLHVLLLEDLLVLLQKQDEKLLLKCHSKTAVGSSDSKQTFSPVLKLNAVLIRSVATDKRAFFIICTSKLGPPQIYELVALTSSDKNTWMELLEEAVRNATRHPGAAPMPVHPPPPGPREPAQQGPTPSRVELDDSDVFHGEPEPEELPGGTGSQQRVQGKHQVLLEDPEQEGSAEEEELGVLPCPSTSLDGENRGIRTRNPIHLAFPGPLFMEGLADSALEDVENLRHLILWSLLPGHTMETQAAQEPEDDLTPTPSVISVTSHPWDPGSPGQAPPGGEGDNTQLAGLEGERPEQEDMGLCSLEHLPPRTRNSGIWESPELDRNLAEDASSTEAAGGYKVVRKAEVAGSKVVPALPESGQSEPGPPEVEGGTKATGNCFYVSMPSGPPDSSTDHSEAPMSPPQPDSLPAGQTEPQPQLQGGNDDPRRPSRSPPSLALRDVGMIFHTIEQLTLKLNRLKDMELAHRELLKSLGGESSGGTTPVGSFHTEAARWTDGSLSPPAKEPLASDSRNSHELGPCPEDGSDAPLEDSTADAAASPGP
Procedure, shortened: as §1

[3] = biological target: T3, PDZ protein (GST-PDZ fusion) (Homo sapiens, UniProt Q02410)
T3 construct: made in house; host or cells: E. coli (DH5alpha, BL21 or JM109)
T3 sequence (Q02410 1-837): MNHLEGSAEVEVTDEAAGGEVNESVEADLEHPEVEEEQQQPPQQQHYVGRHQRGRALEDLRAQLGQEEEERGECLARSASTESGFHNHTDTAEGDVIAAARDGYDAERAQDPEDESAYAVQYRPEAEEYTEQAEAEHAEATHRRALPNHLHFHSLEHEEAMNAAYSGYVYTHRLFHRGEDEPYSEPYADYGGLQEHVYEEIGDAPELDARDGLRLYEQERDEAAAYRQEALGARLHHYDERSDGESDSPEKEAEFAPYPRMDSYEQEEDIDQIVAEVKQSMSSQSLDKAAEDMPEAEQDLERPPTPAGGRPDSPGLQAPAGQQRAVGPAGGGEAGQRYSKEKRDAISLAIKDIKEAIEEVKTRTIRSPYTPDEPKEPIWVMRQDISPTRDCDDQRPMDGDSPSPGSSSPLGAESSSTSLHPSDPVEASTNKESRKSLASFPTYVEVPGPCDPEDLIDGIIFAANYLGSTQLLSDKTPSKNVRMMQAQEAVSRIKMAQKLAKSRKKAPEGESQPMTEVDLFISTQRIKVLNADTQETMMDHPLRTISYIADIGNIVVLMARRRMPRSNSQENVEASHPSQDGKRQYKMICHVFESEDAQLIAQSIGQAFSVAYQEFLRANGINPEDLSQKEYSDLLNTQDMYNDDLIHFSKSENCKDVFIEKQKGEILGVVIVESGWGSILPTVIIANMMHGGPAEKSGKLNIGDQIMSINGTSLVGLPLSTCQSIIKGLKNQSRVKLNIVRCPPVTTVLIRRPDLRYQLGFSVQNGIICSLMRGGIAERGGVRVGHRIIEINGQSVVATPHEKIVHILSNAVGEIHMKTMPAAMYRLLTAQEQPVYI
Procedure, shortened: as §1

[4] = biological target: T4, PDZ protein (GST-PDZ fusion) (Homo sapiens, UniProt Q13796); details: PDZ hAPXL, PDZ Domain 1
T4 construct: made in house; host or cells: E. coli (DH5alpha, BL21 or JM109)
Procedure, shortened: as §1

[5] = biological target: T5, PDZ protein (GST-PDZ fusion) (Homo sapiens, UniProt Q6P0Q8)
T5 construct: made in house; host or cells: E. coli (DH5alpha, BL21 or JM109)
T5 sequence (Q6P0Q8 whole entry, the tested form may be a part): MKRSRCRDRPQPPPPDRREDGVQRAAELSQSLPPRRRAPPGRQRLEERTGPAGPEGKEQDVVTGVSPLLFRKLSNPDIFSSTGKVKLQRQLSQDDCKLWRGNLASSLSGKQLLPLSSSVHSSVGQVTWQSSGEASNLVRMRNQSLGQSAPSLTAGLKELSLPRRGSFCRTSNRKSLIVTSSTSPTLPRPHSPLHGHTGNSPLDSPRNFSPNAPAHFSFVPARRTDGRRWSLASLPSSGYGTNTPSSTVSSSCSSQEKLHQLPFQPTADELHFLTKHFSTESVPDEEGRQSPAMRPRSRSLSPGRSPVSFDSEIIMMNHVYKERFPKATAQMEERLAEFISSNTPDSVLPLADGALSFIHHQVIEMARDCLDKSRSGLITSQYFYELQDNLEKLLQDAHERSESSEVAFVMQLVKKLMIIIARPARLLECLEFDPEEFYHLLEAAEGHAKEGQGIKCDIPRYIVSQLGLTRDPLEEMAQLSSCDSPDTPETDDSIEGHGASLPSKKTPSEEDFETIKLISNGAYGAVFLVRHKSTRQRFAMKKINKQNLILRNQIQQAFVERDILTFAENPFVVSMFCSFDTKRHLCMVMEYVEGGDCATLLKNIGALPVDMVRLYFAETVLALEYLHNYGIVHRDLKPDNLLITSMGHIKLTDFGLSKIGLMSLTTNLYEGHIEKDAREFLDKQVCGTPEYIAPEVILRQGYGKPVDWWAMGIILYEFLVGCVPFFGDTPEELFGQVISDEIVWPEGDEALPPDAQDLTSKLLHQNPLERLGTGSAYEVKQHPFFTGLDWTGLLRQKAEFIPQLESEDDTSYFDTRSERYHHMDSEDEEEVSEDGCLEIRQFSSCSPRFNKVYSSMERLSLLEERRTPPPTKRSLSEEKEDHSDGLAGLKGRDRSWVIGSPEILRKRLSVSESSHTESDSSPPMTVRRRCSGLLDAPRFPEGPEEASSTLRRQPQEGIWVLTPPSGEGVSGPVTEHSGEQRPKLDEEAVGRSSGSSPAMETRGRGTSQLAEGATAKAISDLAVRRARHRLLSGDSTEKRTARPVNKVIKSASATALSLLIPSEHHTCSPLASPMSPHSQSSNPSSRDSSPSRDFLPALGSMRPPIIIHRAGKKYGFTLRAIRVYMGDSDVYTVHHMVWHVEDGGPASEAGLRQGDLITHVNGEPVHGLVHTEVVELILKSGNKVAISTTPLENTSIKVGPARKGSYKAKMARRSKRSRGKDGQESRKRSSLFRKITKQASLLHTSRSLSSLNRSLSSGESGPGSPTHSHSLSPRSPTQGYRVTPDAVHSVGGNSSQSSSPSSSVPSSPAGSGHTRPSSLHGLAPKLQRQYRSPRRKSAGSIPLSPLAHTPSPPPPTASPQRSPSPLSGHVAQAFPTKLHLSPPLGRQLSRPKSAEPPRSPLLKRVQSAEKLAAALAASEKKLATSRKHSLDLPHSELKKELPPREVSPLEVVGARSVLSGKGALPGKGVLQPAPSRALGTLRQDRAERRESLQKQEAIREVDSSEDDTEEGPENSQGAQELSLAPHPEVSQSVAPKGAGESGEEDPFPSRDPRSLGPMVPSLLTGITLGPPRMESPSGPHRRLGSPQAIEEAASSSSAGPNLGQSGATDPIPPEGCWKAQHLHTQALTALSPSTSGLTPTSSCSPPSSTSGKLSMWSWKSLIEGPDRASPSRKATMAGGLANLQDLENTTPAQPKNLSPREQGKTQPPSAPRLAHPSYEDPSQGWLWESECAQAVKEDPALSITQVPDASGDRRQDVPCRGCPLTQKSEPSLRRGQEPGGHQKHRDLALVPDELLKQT
Procedure, shortened: as §1

[6] = biological target: T6, PDZ protein (GST-PDZ fusion) (Homo sapiens, UniProt Q9Y2H9); details: PDZ KIAA0973, PDZ Domain 1
T6 construct: made in house; host or cells: E. coli (DH5alpha, BL21 or JM109)
Procedure, shortened: as §1

[7] = biological target: T7, PDZ protein (GST-PDZ fusion) (Homo sapiens, UniProt O75970); details: PDZ MUPP-1, PDZ Domain 10
T7 construct: made in house; host or cells: E. coli (DH5alpha, BL21 or JM109)
Procedure, shortened: as §1

[8] = biological target: T8, PDZ protein (GST-PDZ fusion) (Homo sapiens, UniProt P50479); details: PDZ LIM RIL, PDZ Domain 1
T8 construct: made in house; host or cells: E. coli (DH5alpha, BL21 or JM109)
T8 sequence (P50479 1-330): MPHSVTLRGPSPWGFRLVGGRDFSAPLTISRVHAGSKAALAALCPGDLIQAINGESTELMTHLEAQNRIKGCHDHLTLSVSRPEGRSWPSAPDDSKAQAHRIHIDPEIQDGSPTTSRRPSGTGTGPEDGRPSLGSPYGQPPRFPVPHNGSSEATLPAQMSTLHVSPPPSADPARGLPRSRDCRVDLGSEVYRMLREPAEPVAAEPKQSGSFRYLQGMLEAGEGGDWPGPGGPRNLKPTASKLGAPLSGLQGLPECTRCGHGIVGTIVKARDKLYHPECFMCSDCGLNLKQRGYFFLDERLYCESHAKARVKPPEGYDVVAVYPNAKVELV
Procedure, shortened: as §1

[9] = biological target: T9, PDZ protein (GST-PDZ fusion) (Homo sapiens, UniProt Q8NI35); details: PDZ INADL, PDZ Domain 8
T9 construct: made in house; host or cells: E. coli (DH5alpha, BL21 or JM109)
Procedure, shortened: as §1

[10] = biological target: T10, PDZ protein (GST-PDZ fusion) (Homo sapiens, UniProt Q07157)
T10 construct: made in house; host or cells: E. coli (DH5alpha, BL21 or JM109)
T10 sequence (Q07157 whole entry, the tested form may be a part): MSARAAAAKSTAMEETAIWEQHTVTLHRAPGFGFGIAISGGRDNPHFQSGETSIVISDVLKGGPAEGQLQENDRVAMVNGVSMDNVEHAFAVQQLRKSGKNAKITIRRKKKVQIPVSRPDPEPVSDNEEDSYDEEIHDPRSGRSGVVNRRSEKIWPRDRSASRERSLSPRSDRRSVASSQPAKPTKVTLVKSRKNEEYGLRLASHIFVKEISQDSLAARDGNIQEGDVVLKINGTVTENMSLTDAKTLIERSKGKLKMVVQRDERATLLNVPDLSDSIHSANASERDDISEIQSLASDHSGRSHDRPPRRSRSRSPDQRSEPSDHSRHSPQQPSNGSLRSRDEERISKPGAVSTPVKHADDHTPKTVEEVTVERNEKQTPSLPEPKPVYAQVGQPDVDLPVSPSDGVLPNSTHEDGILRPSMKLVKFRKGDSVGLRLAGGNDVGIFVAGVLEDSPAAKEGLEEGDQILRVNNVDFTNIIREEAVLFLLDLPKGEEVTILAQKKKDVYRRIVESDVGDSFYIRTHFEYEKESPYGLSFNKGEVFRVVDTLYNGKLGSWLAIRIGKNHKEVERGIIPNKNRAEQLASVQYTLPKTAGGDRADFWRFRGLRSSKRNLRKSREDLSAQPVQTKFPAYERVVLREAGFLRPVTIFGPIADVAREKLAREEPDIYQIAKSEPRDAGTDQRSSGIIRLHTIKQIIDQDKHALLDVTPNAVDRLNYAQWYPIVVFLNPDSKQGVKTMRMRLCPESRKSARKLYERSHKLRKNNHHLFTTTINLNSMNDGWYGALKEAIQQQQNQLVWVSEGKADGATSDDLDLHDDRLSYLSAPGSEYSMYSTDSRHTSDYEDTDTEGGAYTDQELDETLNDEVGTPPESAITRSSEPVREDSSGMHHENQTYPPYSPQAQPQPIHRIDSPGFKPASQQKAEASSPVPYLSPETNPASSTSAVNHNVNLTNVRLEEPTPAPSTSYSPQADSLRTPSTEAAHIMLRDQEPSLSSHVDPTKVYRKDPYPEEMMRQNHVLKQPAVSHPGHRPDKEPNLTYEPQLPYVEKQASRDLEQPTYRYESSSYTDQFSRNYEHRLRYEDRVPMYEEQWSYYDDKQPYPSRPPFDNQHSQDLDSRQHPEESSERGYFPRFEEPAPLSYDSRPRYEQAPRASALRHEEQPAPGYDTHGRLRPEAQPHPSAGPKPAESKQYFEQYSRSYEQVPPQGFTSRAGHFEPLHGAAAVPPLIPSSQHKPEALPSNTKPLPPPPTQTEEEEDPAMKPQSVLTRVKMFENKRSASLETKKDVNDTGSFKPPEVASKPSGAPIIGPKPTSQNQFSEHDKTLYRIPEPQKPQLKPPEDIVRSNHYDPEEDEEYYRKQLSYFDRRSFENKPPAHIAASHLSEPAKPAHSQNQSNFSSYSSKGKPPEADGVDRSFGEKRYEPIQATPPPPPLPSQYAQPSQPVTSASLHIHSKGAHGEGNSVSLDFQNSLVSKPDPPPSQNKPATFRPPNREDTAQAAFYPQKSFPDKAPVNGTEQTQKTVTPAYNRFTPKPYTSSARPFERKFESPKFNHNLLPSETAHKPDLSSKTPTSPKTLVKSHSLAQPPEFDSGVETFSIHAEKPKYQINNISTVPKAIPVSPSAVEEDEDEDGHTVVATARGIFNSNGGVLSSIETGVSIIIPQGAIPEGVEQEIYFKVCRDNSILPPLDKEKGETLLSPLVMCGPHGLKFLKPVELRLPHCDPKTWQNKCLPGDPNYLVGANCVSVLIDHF
Procedure, shortened: as §1

[11] = biological target: T11, PDZ protein (GST-PDZ fusion) (Homo sapiens, UniProt Q9P202); details: PDZ KIAA1526, PDZ Domain 1
T11 construct: made in house; host or cells: E. coli (DH5alpha, BL21 or JM109)
T11 sequence (Q9P202 1-907): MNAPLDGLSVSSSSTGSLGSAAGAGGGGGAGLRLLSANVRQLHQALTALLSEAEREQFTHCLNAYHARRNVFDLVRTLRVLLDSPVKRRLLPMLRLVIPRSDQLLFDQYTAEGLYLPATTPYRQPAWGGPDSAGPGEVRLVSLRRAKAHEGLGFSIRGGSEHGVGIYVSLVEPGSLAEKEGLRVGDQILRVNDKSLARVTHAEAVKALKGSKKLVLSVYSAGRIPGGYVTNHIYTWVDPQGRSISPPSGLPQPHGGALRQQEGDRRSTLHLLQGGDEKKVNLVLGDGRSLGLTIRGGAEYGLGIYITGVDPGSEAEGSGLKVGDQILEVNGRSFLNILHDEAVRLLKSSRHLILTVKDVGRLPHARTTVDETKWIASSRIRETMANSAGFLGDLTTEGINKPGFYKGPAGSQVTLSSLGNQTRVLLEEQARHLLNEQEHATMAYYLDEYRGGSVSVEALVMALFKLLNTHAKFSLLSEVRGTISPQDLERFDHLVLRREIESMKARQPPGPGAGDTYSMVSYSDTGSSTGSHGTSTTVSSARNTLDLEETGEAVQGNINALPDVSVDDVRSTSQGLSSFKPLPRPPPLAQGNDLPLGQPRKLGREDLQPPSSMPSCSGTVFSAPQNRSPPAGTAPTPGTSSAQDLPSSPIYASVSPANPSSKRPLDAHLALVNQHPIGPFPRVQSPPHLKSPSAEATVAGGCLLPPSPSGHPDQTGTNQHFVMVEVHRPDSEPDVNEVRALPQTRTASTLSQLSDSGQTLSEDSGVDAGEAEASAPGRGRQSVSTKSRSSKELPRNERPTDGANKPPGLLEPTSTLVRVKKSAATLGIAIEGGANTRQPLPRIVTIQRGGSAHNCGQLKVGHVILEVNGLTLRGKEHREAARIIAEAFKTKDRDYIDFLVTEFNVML
Procedure, shortened: as §1

[12] = biological target: T12, PDZ protein (GST-PDZ fusion) (Homo sapiens, UniProt Q9UDY2); details: PDZ ZO-2, PDZ Domain 2
T12 construct: made in house; host or cells: E. coli (DH5alpha, BL21 or JM109)
T12 sequence (Q9UDY2 1-1190): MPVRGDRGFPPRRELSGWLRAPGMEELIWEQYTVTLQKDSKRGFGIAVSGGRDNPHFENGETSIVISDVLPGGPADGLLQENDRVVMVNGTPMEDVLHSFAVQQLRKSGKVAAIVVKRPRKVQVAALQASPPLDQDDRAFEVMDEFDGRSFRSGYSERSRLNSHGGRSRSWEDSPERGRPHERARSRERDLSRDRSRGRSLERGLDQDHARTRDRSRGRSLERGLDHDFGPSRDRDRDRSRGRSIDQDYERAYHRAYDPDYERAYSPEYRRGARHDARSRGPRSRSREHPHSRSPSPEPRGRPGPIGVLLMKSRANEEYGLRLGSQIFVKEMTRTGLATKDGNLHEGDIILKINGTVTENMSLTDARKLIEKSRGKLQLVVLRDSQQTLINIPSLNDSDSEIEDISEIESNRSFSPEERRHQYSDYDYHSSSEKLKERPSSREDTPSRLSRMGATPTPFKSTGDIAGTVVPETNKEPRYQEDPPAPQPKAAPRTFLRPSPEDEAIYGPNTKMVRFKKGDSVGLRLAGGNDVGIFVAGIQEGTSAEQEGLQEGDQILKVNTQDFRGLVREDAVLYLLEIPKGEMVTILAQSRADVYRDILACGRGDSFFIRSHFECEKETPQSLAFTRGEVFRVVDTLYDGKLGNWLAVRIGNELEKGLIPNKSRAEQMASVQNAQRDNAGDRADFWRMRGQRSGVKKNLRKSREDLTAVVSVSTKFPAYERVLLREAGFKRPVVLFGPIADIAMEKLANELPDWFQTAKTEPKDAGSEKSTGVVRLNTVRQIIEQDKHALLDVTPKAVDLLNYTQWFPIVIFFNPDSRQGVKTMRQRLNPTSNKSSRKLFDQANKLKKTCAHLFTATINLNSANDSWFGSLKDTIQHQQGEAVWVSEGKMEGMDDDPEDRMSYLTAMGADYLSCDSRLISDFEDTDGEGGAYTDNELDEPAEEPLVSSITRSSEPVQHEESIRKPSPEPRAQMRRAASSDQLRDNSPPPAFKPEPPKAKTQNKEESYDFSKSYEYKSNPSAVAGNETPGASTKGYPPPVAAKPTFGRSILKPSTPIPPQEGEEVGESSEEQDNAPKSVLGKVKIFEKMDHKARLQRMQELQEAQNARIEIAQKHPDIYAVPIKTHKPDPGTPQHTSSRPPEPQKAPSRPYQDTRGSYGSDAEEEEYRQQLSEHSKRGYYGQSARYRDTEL
Procedure, shortened: as §1

[13] = system: PDZ protein (GST-PDZ fusion)
Procedure, shortened: as §1

[14] = biological target: T13, PDZ protein (GST-PDZ fusion) (Homo sapiens, UniProt Q12959); details: PDZ DLG1, PDZ Domain 1, 2
T13 construct: made in house; host or cells: E. coli (DH5alpha, BL21 or JM109)
Procedure, shortened: as §1

[15] = biological target: T14, PDZ protein (GST-PDZ fusion) (Homo sapiens, UniProt Q5T2W1); details: PDZ PDZK1, PDZ Domain 2, 3, 4
T14 construct: made in house; host or cells: E. coli (DH5alpha, BL21 or JM109)
T14 sequence (Q5T2W1 1-519): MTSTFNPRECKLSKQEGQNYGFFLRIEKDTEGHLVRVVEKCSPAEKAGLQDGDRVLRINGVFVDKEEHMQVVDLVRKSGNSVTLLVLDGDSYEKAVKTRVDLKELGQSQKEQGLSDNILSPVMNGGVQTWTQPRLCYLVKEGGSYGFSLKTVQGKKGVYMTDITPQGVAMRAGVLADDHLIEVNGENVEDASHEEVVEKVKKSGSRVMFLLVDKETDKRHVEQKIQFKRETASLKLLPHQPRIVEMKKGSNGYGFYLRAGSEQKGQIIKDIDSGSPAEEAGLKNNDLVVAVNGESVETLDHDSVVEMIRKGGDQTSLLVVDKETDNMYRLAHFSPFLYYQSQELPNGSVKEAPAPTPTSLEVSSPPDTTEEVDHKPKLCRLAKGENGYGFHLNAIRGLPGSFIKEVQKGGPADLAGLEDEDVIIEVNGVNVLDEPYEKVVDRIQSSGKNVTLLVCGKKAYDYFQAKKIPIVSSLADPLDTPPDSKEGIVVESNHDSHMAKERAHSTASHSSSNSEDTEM
Procedure, shortened: as §1

## SSKSKSSEESQTFFGLYKL (Biotin-SSKSKSSEESQTFFGLYKL) [Fas Ligand]
[1]
  Classification: 2 (A450 nm 1-2)
[2]
  Classification: 3 (A450 nm 2-3)
[3]; PDZ Mint 1, PDZ Domain 1, 2
  Classification: 4 (A450 nm 3-4)
[4]
  Classification: 2 (A450 nm 1-2)
[5]; PDZ KIAA807
  Classification: 5 (A450 nm of 4 more than 2× repeated)
[5]; PDZ KIAA0807(S), PDZ Domain 1
  Classification: 5 (A450 nm of 4 more than 2× repeated)
[6]
  Classification: 2 (A450 nm 1-2)

## INSVGSTASSSQPLLVHDDV (Biotin-INSVGSTASSSQPLLVHDDV) [c-kit receptor]
[7]
  Classification: 1 (A450 nm 0-1)
[8]
  Classification: 1 (A450 nm 0-1)
[3]; PDZ Mint 1, PDZ Domain 2
  Classification: 1 (A450 nm 0-1)
[9]
  Classification: 1 (A450 nm 0-1)

## TEGNESSEATSPVNAIYSLA (Biotin-TEGNESSEATSPVNAIYSLA) [neurofascin (chicken)]
[10]; PDZ ZO-1, PDZ Domain 1
  Classification: 1 (A450 nm 0-1)
[10]; PDZ ZO-1, PDZ Domain 2
  Classification: 1 (A450 nm 0-1)
[11]
  Classification: 1 (A450 nm 0-1)
[12]
  Classification: 1 (A450 nm 0-1)

## PSSRASSRASSRPRPDDLEI (Biotin-PSSRASSRASSRPRPDDLEI) [CX43]
[10]; PDZ ZO-1, PDZ Domain 2
  Classification: 2 (A450 nm 1-2)
[12]
  Classification: 1 (A450 nm 0-1)
[13]; as cited in the text from TABLE 7
  PDZ proteins bound by the PL (TABLE 7): ZO-2 and ZO-1

## SSR4_HUMAN (EALQPEPGRKRIPLTRTTTF)
[3]; PDZ Mint 1, PDZ Domain 1, 2
  Classification: 1 (A450 nm 0-1)
[14]
  Classification: 1 (A450 nm 0-1)
[15]
  Classification: 1 (A450 nm 0-1)
[5]; PDZ KIAA807
  Classification: 1 (A450 nm 0-1)
[13]; PDZ BAI-1, PDZ Domain 4
  Classification: 1 (A450 nm 0-1)
[13]; PDZ BAI-1, PDZ Domain 5
  Classification: 1 (A450 nm 0-1)
